Key:
[1] = Pectin lyase activity (absorbance at 235 nm, acetate buffer); type: biochemical
Experimental: An example of a method for measuring pectin lyase activity is to measure over time the absorbance of the maximum absorption wavelength at 235 nm by unsaturated polygalacturonid formed as a result the substrate being degraded by enzymatic action. In the alternative, other publicly-known methods may be used.
First, 50 μL of a solution of 2 wt. % of pectin (SIGMA/P9436, derived from citrus fruit) adjusted to pH 4.5 using NaOH or HCl, and 50 μL of enzyme solution were prepared. The 50 μL of wt. 2% pectin solution was mixed with 400 μL of 50 mM acetate buffer (pH 4.5) to prepare in advance a total of 450 μL, to which 50 μL of enzyme solution is to be added for a total of 500 μL as an enzymatic reaction solution to be used when measuring activity. In order to ensure uniform diffusion of the substrate in the reaction solution and to achieve stabilization, NaCl is added to obtain a final concentration of 0.1 M.
The enzyme solution and the enzymatic reaction solution without the enzyme solution are each incubated for 10 minutes at 25° C., after which 50 μL of the enzyme solution is mixed with 450 μL of the enzymatic reaction solution without the enzyme solution. An enzymatic reaction is then initiated, and measurements of absorbance at 235 nm are taken continuously for 10 minutes at 25° C. using a spectrometer. The amount of resulting unsaturated polygalacturonid is computed using a molecular absorbance coefficient of 5200 (M^−1cm^−1) (Paloma Sanchez-Torres, Jeap Visser, and Jacques A. E. Benen, Biochem. J., 370, 331-337, Feb. 15, 2003), and 1 unit (1 U) of pectin lyase activity was set at the amount of unsaturated polygalacturonid formed per 1 μmmol of unsaturated digalacturonid per minute.
In order to determine the optimal pH for pectin lyase activity of pectin lyase having maceration activity produced from the strain Aspergillus niger NBRC31125, the enzyme activity at various pH levels was measured using the above-described enzymatic reaction solution with modified pH (the enzymatic reaction solution described in [C] 2. (1) above).
(§1) It should be noted that a 20 mM phosphate buffer was used for the pH 6.0-7.5 enzymatic reaction solution, and a 50 mM Tris-HCl buffer was used for the pH 7.5-9.5 enzymatic reaction solution. In cases where a McIlvaine buffer was used in a pH range of 3-6, the pectin lyase activity was measured in the same manner. Moreover, in order to determine the pH stability, the pH of enzyme solutions containing purified enzymes was adjusted to 3.0, 4.0, 5.0, 6.0, 7.0, 8.0, 9.0 and 10.0, using either HCl or NaOH. After allowing these enzyme solutions to stand for 24 hours at 4° C., the pectin lyase activity was measured at 25° C. using a 50 mM acetate buffer (pH 4.5).

sweet potato discs [2] = assay: Maceration activity, sweet potato disc decay at 45° C. in McIlvaine buffer; type: biochemical; conditions: for specific maceration activity relative to N400 strain PLA: per 1 mg of protein, at optimal pH
Experimental: The maceration activity was measured as described below. First, sweet potato discs were prepared in the same manner as described above. Then, 50 μL of enzyme solution and 450 μL of buffer were placed in a test tube and mixed, forming a test solution held at a constant temperature of 45° C., then 1 of the above sweet potato discs were placed therein, and a reaction was initiated. A McIlvaine buffer was used as the buffer, and the ionic strength of the test solution (total of 500 μL) was adjusted in advance to I=0.3 or 0.5, using KCl. After the reaction started, stirring was carried out in the manner described above, and the degree of decay was visually observed. Three specimens each were prepared under the various conditions, and reactions of specimens under identical conditions were initiated simultaneously. The strength of the maceration activity under those conditions was expressed by the reciprocal of the time needed for any 2 of the sweet potato discs of the 3 specimens under identical conditions (total of 3) to almost uniformly decay.

[3] = Pectin lyase activity with HM pectin in McIlvaine buffer; type: biochemical
Experimental: In order to determine the kM value of the isolated and purified pectin lyase having maceration activity (SIGMA/P9561, derived from citrus fruit, degree of esterification <90%), a McIlvaine buffer (0.1 M citric acid, 0.2 M phosphoric acid) adjusted to pH 4.8 was used in measuring the enzyme activity when the final concentration of pectin was changed.
In addition, under conditions of 30° C., and within a pH range of 3.0-7.0, a McIlvaine buffer was used to measure the pectin lyase activity when the ionic strength of the various buffers was adjusted to 0.5 using KCl.
The pectin lyase activity was measured as described below. First, a McIlvaine buffer was used in the enzymatic reaction solution, and an HM pectin substrate (SIGMA/P9561, derived from citrus fruit, degree of esterification <90%) was used to obtain a final concentration of 3 mg/mL. The ionic strength of the enzymatic reaction solution was adjusted in advance to I=0.3 or 0.5, using KCl, and the enzyme solution was 50 μL, and the total amount of the enzymatic reaction solution was 500 μL. Measurements were carried out in the same manner as in [C] 2. (2) (Paloma Sanchez-Tones, Jaap Visser, and Jacques A. E. Benen, Biochem. J., 370, 331-337, Feb. 15, 2003), except that the temperature was 30° C.

[4] = pH stability of pectin lyase; type: physicochemical; conditions: 24 hours at 4° C., activity then measured at pH 4.5, 25° C.
Experimental: as §1
The pH stability was evaluated using the formula (activity after standing/activity before standing)×100. As a result, the specific activity and the pH stability of pectin lyase at various pH levels are represented in the graph in FIG. 1, where 1.0 is pectin lyase at pH 4.5. The optimal pH for pectin lyase activity according to the present invention was 4.5 in the acetate buffer, and 4.8 in the McIlvaine buffer, and was thus found to be stable in a pH range of 3-6.

sweet potato discs [5] = assay: Maceration activity, sweet potato disc decay at 30° C.; type: biochemical
Source text: Maceration activity can be measured, for example, by immersing a sweet potato disc in the enzyme solution, and measuring the time elapsed until the sweet potato disc uniformly decays in the enzyme solution as a result of insoluble pectin being degraded by enzymatic action. In the alternative, other publicly-known methods may be used.
A column 6 mm in diameter is removed from the center of a sweet potato using a cork borer. After using a knife to cut sweet potato discs about 0.3 mm thick, the discs are immersed for 60 seconds in 70% ethanol and then rinsed with distilled water. Into a test tube are placed 300 μL of enzyme solution with pH adjusted to 3.5 using HCl, and 200 μL of 50 mM acetate buffer (pH 3.5), and after these are mixed, a constant temperature is set at 30° C., and 3 of the above sweet potato discs are placed therein, and a reaction is initiated. Every 15 minutes after the reaction starts, agitation is carried out for 10 seconds using a test tube mixer, and the degree of decay is visually observed. The strength of the maceration activity is expressed by the reciprocal of the time needed for 2 of the 3 sweet potato discs to almost uniformly decay (Reference literature: Toshihiko Suganuma, Tetsuro Fukumoto, Youko Ikemizu, Katsuyuki Nakama, Shigeo Fujimoto, and Tomonori Nagahama, Bulletin of the Faculty of Agriculture, Kagoshima University, 37, 89-98, Mar. 16, 1987).
A column 6 mm in diameter was removed from the center of a sweet potato (about 500 g) using a cork borer. After using a knife to cut sweet potato discs about 0.3 mm thick, the discs were immersed for 60 seconds in 70% ethanol and then rinsed with distilled water. Into a test tube were placed 300 μL of purified enzyme solution (1.30 μg/mL) and 200 μL of a buffer, and after these were mixed, a constant temperature was set at 30° C., and 3 of the above sweet potato discs were placed therein, and a reaction was initiated.
The buffers were 50 mM acetate buffers with pH 3.0, 3.5, 4.0, 4.5, 5.0, and 6.0, a 50 mM HEPES buffer with pH 7.0, and 50 mM Tris-HCl buffers with pH 8.0 and 9.0. After starting the reaction, stirring was carried out for 10 seconds with a test tube mixer every 15 minutes, and the degree of decay was visually observed. The strength of the maceration activity was expressed by the reciprocal of the time needed for 2 of the 3 sweet potato discs to almost uniformly decay.
In order to evaluate the strength of the maceration activity of the pectin lyase of the present invention, in a Comparative Example, two commercially available enzyme preparations, Macerozyme R10 and Pectolyase Y-23 were dissolved in purified water so that the amount of protein in the respective enzyme solutions was 1.30 μg/ml, and these were subjected to the test described above.

[6] = Effects of metallic ions on pectin lyase activity; type: biochemical; conditions: Ca^2+ 1 mM, acetate buffer pH 4.5, 25° C.
Experimental: Tests were conducted on the effects of metallic ions (Ca^2+, Ba^2+, Co^2+, Cu^2+, Mg^2+, Mn^2+, Zn^2+, and Fe^2+) of pectin lyase having maceration activity produced from the strain Aspergillus niger NBRC31125 on pectin lyase activity.
The test method involved the use of chlorides of various metals, and adjusting their final concentration in the enzymatic reaction solution to 1 mM, and calculating the percentage of change in activity depending on the presence or absence of metallic ions. The enzymatic reaction solution used a 50 mM acetate buffer and a pH of 4.5, and measurements were taken at 10-minute intervals at 25° C.

[7] = Test to determine the maximum temperature of pectin lyase / heat deactivation; type: physicochemical; conditions: 15 minutes at 121° C.
[8] = McIlvaine buffer, I=0.3, 45° C.
[9] = McIlvaine buffer pH 4.8, Lineweaver-Burk plot

B1: pectin lyase of the present invention: Pectin lyase with maceration activity purified from Aspergillus niger NBRC31125; SEQ ID NO: 2; PLA mutant differing in 9 amino acids from N400 PLA (protein, listed as Aspergillus sp.)
chain: VGVSGSAEGFAEGVTGGGSATPVYPDTIDELVSYLGDDEARVIVLTKTFDFTDSEGTTTGTGCAPWGTASACQVAIDQDDWCENYEPDAPSVSVEYYNAGTLGITVTSNKSLIGEGSSGAIKGKGLRIVSGAENIIIQNIAVTDINAKYVWGGDAITLDDCDLVWIDHVTTARIGRQHYVLGTSADNRVSLTNNYIDGVSDYSATCDGYHYWAIYLDGDADLVTMKGNYIYHTSGRSPKVQDNTLLHAVNNYWYDISGHAFEIGEGGYVLAEGNVFQNVDTVLETYEGEAFTVPSTTAGEVCSTYLGRDCVINGFGSSGTFSEDSTSFLSDFEGKNIASASAYTSVASSVVANAGQGNL
Q: Which results are given for B1?
A: pectin lyase activity ([1]; 50 mM acetate buffer pH 4.5, 25° C.): 54.7 U/mg; optimal pH for pectin lyase activity ([1]; McIlvaine buffer): 4.8; optimal pH for pectin lyase activity ([1]; acetate buffer): 4.5; pectin lyase activity relative to crude enzyme solution ([1]; purified vs crude enzyme solution): 61 times; optimal pH of maceration activity (sweet potato discs [2]; [8]): 4.0; specific maceration activity per 1 mg (sweet potato discs [2]; [8]): 7400 h⁻¹ mg⁻¹; optimal pH of maceration activity (sweet potato discs [2]; McIlvaine buffer, I=0.5, 45° C.): 5.0; ratio of the maceration activity to the pectin lyase activity (sweet potato discs [2]; maceration activity/pectin lyase activity of 1 mg of enzyme): 72.5; specific maceration activity relative to N400 strain PLA (sweet potato discs [2]): about 3 times; specific maceration activity relative to N400 strain PLA (sweet potato discs [2]; listed as protein of the present invention): 3 times; specific maceration activity relative to N400 strain PLA (sweet potato discs [2]; listed as this pectin lyase): about 3 times; optimal pH for pectin lyase activity ([3]; 30° C., McIlvaine buffer pH 3.0-7.0, ionic strength 0.5 with KCl (FIG. 2)): 4.8; specific pectin lyase activity ([3]; 30° C., McIlvaine buffer, I=0.5, at optimal pH): 102 U/mg; Km value [3, 9]: 5.4 mg/mL; Vmax value [3, 9]: 140 U/mg; optimal pH of pectin lyase activity ([3]; McIlvaine buffer, I=0.3, 30° C.): 4.0; optimal pH of pectin lyase activity ([3]; McIlvaine buffer, I=0.5, 30° C.): 5.0; pH range in which stable [4]: 3-6; optimal pH for maceration activity (sweet potato discs [5]; 30° C., enzyme solution 1.30 μg/mL protein, buffers pH 3.0-9.0): ~3.5; maceration activity per 390 ng of protein (sweet potato discs [5]; at optimal pH, 30° C.): 0.15 h⁻¹; specific maceration activity at pH 3.0 relative to Macerozyme R10 (sweet potato discs [5]; pH 3.0): 27.7 times; specific maceration activity at pH 3.0 relative to Pectolyase Y-23 (sweet potato discs [5]; pH 3.0): 15.6 times; maceration activity of enzyme solution used for pectin lysate (sweet potato discs [5]; pH 3.0, 0.5 mL enzyme solution (500 ng purified pectin lyase; 2% Macerozyme A; 0.16% Pectolyase Y-23)): 0.18 h⁻¹; maceration activity (sweet potato discs [5]; pH 5.0 or lower): maceration activity was observed; decay of sweet potato discs (sweet potato discs [5]; pH 6.0, 7.0, 8.0, and 9.0): no decay occurred at all; Activity (%) vs. non-addition of ions [6]: 120%; deactivation by boiling treatment [7]: completely deactivated

— US8691536B2, “Pectin lyase, pectin lyase polynucleotide, enzyme preparation, and method for producing single cells of plant tissue” (Bio-I Co., Ltd., priority 2009, dated 2014)
